# According to patent US20240376168A1 (LETO LABORATORIES, published 2024):
# Positions count from the first letter of the chain named. In names and notes the source's numbering stands.
# T1: extracellular domain of human receptor β-Klotho with a C-terminal Poly-His tag (human, UniProt Q86Z14 1-996)
# T1 construct: extracellular domain; Immobilised on an NTA chip at 1,000 RU; also called human β-Klotho protein; KLB; not shown: Poly-His tag at the C-terminus
# T1 sequence (looked up): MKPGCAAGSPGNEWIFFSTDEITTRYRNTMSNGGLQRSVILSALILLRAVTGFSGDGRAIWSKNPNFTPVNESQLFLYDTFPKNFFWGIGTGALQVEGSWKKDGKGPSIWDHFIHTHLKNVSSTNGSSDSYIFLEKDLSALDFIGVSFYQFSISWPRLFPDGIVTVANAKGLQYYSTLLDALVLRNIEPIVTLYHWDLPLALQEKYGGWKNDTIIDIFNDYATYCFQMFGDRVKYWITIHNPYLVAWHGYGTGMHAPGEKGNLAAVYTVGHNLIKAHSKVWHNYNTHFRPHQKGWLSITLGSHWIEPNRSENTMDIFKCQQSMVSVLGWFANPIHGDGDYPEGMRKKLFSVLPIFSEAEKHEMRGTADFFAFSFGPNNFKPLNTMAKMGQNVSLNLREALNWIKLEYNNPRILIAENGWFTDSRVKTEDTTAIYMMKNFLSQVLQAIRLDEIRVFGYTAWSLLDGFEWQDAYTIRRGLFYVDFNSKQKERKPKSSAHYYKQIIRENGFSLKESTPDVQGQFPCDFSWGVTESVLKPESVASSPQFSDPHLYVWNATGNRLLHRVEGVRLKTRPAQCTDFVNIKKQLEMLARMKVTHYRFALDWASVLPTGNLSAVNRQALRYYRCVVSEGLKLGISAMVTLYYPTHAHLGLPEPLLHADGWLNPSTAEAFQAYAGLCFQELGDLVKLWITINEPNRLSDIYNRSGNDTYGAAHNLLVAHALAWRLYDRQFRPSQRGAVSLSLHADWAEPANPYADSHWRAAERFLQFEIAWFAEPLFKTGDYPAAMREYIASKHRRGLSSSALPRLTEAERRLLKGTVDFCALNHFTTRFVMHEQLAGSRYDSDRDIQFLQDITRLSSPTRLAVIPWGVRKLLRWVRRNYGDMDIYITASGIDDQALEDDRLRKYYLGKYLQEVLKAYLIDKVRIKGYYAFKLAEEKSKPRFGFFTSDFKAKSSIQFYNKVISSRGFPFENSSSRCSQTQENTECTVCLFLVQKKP
# B1: FGF21 (170C/Ins-172G/173C) mutant 1409 (ligand)
# chain: HPIPDSSPLLQFGGQVRQRYLYTDDAQQTEAHLEIREDGTVGGAADQSPESLLQLKALKPGVIQILGVKTSRFLCQRPDGALYGSLHFDPEACSFRELLLEDGYNVYQSEAHGLPLHLPGQKSPHRDPAPRGPARFLPLPGLPPALPEPPGILAPQPPDVGSSDPLSLVCPGCQGRSPSYAS
# modifications: intramolecular disulfide bond between C170 and C173
# B2: FGF21 (170C/Ins-172A/173C) mutant 1412 (ligand)
# chain: B1 chain with G172A
# modifications: disulfide bond introduced between 170C and 173C
# notes: A small number of incorrect dimers is reported
# B3: FGF21 (170C/Ins-172S/173C) mutant 1413 (ligand)
# chain: B1 chain with G172S
# modifications: disulfide bond introduced between 170C and 173C
# notes: as for B2
# B4: FGF21 (121Q, 168L) mutant 1414 (ligand)
# chain: HPIPDSSPLLQFGGQVRQRYLYTDDAQQTEAHLEIREDGTVGGAADQSPESLLQLKALKPGVIQILGVKTSRFLCQRPDGALYGSLHFDPEACSFRELLLEDGYNVYQSEAHGLPLHLPGQKSPHRDPAPRGPARFLPLPGLPPALPEPPGILAPQPPDVGSSDPLSLVGPSQGRSPSYAS
# notes: Control that stands for wild-type FGF21; An alanine is added before His1 of mature FGF21; also called FGF21 control mutant 1414
# B5: FGF21 (170C/173C) mutant 1411 (ligand)
# chain: B4 chain with G170C, Q173C
# modifications: disulfide bond introduced between 170C and 173C
# notes: Only a trace amount of incorrect dimers is reported
# B6: FGF21 (P171G) mutant 1407 (ligand)
# chain: B4 chain with P171G
# notes: also called FGF21 mutant P171G
# B7: FGF21 (Del-P171) mutant 1408 (ligand)
# chain: HPIPDSSPLLQFGGQVRQRYLYTDDAQQTEAHLEIREDGTVGGAADQSPESLLQLKALKPGVIQILGVKTSRFLCQRPDGALYGSLHFDPEACSFRELLLEDGYNVYQSEAHGLPLHLPGQKSPHRDPAPRGPARFLPLPGLPPALPEPPGILAPQPPDVGSSDPLSLVGSQGRSPSYAS
# Target: β-Klotho overexpressed on HEK293 cells
# Assay: cell-based or functional assay
row,Binder,Activity in β-Klotho-ERK cells (EC50) [nM]
1,B1,2.14
2,B2,2.52
3,B3,2.09
4,B4,0.85
5,B5,0.999
6,B6,1.15
7,B7,1.48

# Target: T1, extracellular domain of human receptor …
# Assay: SPR, Biacore-8K; His-tagged β-Klotho ECD on NTA chip, FGF21 mutant as analyte, kinetic fit
# Procedure: An extracellular domain of a human receptor β-Klotho (a Poly-His tag was fused at a C-terminus) was expressed and purified in the present disclosure, and a sequence of the protein was acquired from the Uniprot database. An affinity assay was conducted with Biacore-8K. Specifically, a human β-Klotho protein was immobilized on an NTA chip at a fixed amount of 1,000 RU with PBS (including 0.05% Tween-20) as a flow buffer. An FGF21 mutant was allowed to flow through the chip at different concentrations to determine the binding of the FGF21 mutant to β-Klotho. Final data were fitted using kinetics, and a dissociation constant KD was calculated.
row,Binder,Kd [nM]
1,B1,59.4
2,B2,69.9
3,B3,64.6
4,B4,51.2
5,B5,69.4
6,B6,42.5
7,B7,67.5
